Molecular target: voltage-dependent anion-selective channel 1 (VDAC1), purified from rat liver mitochondria (rat) (UniProt Q9Z2L0)
Test: MST; VDAC1 (138 nM) or MAVS (105 nM) fluorescently labeled and kept constant, tested protein at different concentrations; 20mM Tris-HCl, 200mM NaCl, pH 8; 30 min at 37°C in the dark; Monolith NT.115, LED 20%, IR laser 80%

SARS-CoV-2 small envelope E-protein, purified (from UniProt P0DTC4 1-75) (natural protein)
C50 (half maximal binding): 1100 nM
